Assay results: article PMC9599101 (Biosensors, 2022)

B1: anti-SEB monoclonal antibody 2-7A (antibody, V domains shown)
VH: EVLLVESGGGLVQPGGSLRLSCATSGFTFTDYYMSWVRQPPGKALEWLGFIRNKANGYTTKYSASVKGRFTISRDNSQSILYLQMNTLRAEDSATYYCAKDNWEAYFDYWGQGTTLTVSS
VL: DVVMTQTPLSLPVSLGDQASISCRSSQSIVHSNGNTYLEWYLQKPGQSPKLLIYKVSNRFSGVPDRFSGSGSGTDFTLKISRVEAEDLGVYYCFQGSHVPWTFGGGTKLELK
notes: also called 2-7A mAb
B2: anti-SEB monoclonal antibody 4-7A (antibody, V domains shown)
VH: QVQMQQSGAELVRPGASVKLSCKASGYTFTNNWMNWVKQRPGQGLQWIGMIDPSDSETHYNQMFKDKASLTVDKSSSSAYMVLSSLTSEDSAVYYCARRALSYYGSNPTLFDYWGQGTTLTVSS
VL: DIVMSQSPSSLAVSVGEKVTMSCKSSQSLLYSSNQKNYLAWYQQKPGQSPKLLIYWASTWESGVPDRFTGSGSGTNFTLTINSVKTEDLAVYYCQQYSGYPYTFGGGTKLELK
notes: also called 4-7A mAb
B3: anti-SEB monoclonal antibody 11-7E (antibody, V domains shown)
VH: QVQLKESGPELVRPGVSVKISCKGSGYTFTDYAMHWVKQSHAKSLEWIGIISTYSGNTNYNQKFKAKATMTVDKSSSTAYMELARLTSEDSAIYYCAREGYYGSSRSFDVWGAGTTLTVSS
VL: QIVLTQSPALMSASPGEKVTMTCSASSSVSYMYWYQQKPRSSPKPWIYLTSNLASGVPARFSGSGSGTSYSLTISSMEAEDAATYYCQQWSSNPLTFGAGTKLELK
notes: also called 11-7E mAb

Legend:
[1] = target: T1, recombinant SEB produced by BEVS (staphylococcal enterotoxin B, 6x His-tagged) (Staphylococcus aureus., UniProt P01552); assay: ELISA; details: both partners purified
T1 construct: not shown: His6, C-terminal, kept

[2] = target: T1, recombinant SEB produced by BEVS …; assay: BLI; details: both partners purified
[3] = target: natural SEB secreted from S. aureus strain CCARM 3089 (Staphylococcus aureus CCARM 3089, UniProt P01552, strain); assay: ELISA; details: one partner purified
[4] = target: natural SEB secreted from S. aureus strain SA2 (Staphylococcus aureus SA2 (bovine …, UniProt P01552, strain)); assay: ELISA; details: one partner purified

Row | Binder | EC50 [1] [nM] | Kd [2] [nM] | koff [2] [s⁻¹] | kon [2] [M⁻¹ s⁻¹] | binding result [3] | binding result [4]
1 | B1 | 13.5 | 0.55 | 7.02e-05 | 128000 | – | –
2 | B2 | 14.5 | 1.55 | 0.000226 | 146000 | – | –
3 | B3 | 16.7 | 0.331 | 3.27e-05 | 99000 | binds | binds
